Earlier results in publication PMC5413942.

Molecular target: FhuA Ton box peptide Ton box (Escherichia coli) (UniProt P06971)

Chain of TonB (P02929 whole entry): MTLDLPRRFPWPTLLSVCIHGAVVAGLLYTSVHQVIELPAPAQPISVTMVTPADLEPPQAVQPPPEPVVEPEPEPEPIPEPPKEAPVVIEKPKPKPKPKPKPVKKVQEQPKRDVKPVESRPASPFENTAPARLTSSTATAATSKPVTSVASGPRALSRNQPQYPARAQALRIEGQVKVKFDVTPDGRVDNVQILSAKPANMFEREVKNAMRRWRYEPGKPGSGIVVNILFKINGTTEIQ

For TonB (from UniProt P02929), the Kd is given as 36 µM.
